# Laboratory results taken from the supplement of paper PMC12042874.
# ± gives the uncertainty stated by the source.
# Assay: amyloid nucleation score (Sup35N fusion, yeast selection) (log enrichment); library NNK2; higher = more nucleation; inactive = no reads after selection
# Procedure, shortened: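 Peptides of 20 random codons fused to Sup35N were expressed in psi-negative yeast, induced 24 hours with 100 μM copper sulfate, then grown 7 days at 30°C on medium lacking adenine and uracil. Input and output plasmid inserts were Illumina-sequenced. Nucleation score is the DiMSum log enrichment of output over input reads, centred on the mode score of non-aggregating sequences, excluding sequences with under 100 input reads. Random libraries had three technical output replicates.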
row,Substance,amyloid nucleation score
1,ISSYEVELDALIVWGDTSSG,0.006 ± 0.49
2,WGCCGDLVYAIS,0.194 ± 0.62
3,YWFQKLEGSRHDMV,-0.121 ± 1.1
4,VIHSPQMLSWSSHGNARFSK,0.628 ± 0.33
5,DWCWAMDLYSFVFHCRLEAF,-0.658 ± 1
6,CKEDIISSEWYLSVGFA,inactive
7,VRLPLIVYLKSAYTSPPWGS,-0.702 ± 1.1
8,LRVMSSISDDNAQEFDDFCV,3.75 ± 0.062
9,CMVNPVPWDCLVRKFMFVGA,-0.421 ± 0.35
10,SMASGILCDAAYNACSQGCG,0.632 ± 0.48
11,LALMS,-0.324 ± 0.61
12,CVFNTFMNDKIIGRLWPTDW,2.91 ± 0.15
13,THLLVVWFDNRYF,0.978 ± 0.74
14,KHMYYYCLYANELQVAVEMN,-0.235 ± 0.45
15,RWTKGCDSNCIWF,-0.502 ± 0.25
16,PQAVLKGTQGHNLTKNLTWA,-0.774 ± 0.49
17,LCINN,-1.99 ± 1.1
18,TARDVFIAVFA,0.089 ± 1.1
19,GHIMKCGATRQYHCEDP,-0.614 ± 0.79
20,FGKNYNFCNV,-0.184 ± 0.63
21,TRVAYRI,0.219 ± 1
22,VSYVYVKGFGVWFLCTCSPR,5.74 ± 0.072
23,LGMCRGLRLIMMDWFGSDKM,2.35 ± 0.075
24,YRWNYWFVVMMRPSSEDYLR,4.951 ± 0.047
25,NDWFCVVY,-1.48 ± 0.42

row,Substance,amyloid nucleation score
1,IKHKLWRAYYCSESTLSVLS,-1.03 ± 0.28
2,NFIKKGCGKGNLDLFSLRDV,inactive
3,SYNFM,inactive
4,ILSLMLRSVWRSVLLVLQ,inactive
5,VRYFGDILFMSALYNLAGFA,inactive
6,FLVLGFMIWYTLRCLALTFS,inactive
7,CSIPCCVGHTLSLGRQFVFV,0.13 ± 0.43
8,RADSIFDTI,-0.721 ± 0.61
9,LTAGVYSSSWSDVS,1.4 ± 0.14
10,SISTSTGLRRHPYNGPKIGM,-0.221 ± 0.32
11,CTTLLALHMWISCVIGWSR,0.172 ± 0.39
12,PFGGVEAFAGRMWWVEHSYW,0.009 ± 0.55
13,YINSMLSSYFDSLWEGSKSR,-0.109 ± 0.27
14,KQLFSLISYVG,-1.4 ± 1.1
15,MTFENFSSSHSWTDLLFLFI,3.43 ± 0.078
16,YLSAAVKTEVV,0.619 ± 0.37
17,VTYWFLLHNIRRLPRYIWLR,-0.664 ± 0.48
18,LKEHYF,-1.44 ± 0.55
19,SYWGQIGRSHTSCLCPSDQV,inactive
20,LGKFFNNPLLFGFY,inactive
21,VSVWYGGLVRVRSTWCKIKF,1.13 ± 0.13
22,KNSWAAVPRSEEYCREVIGH,0.482 ± 0.56
23,DLFGCFVNCRSRL,2.89 ± 0.092
24,GWMQIGSVYLFSE,7.741 ± 0.048
25,KDLGA,3.08 ± 0.13

row,Substance,amyloid nucleation score
1,YHYGNGVAWDMTRKPRHHFV,-0.243 ± 0.41
2,RAMYECF,0.604 ± 0.41
3,WYALNYTIPEPYWT,0.881 ± 0.48
4,MRWSYFDH,0.921 ± 0.47
5,VGAMSIMKVLNFHDDILTVT,inactive
6,SSKETGRRTVDRFQYMTRYR,1.94 ± 0.32
7,LVQMLVSV,-0.342 ± 1
8,DNIKTVSRMTWPWLMFTVGG,0.3 ± 0.55
9,KATWS,-1.2 ± 0.76
10,WRALPKYGYCLSLGVYEETR,-0.102 ± 0.55
11,FLLPGCSLIFFYCSGCSMV,5.014 ± 0.031
12,ICGGTSESGRYRKAGQGV,1.07 ± 0.15
13,FRDIVWF,-0.469 ± 0.55
14,FPASHRVVQV,5.41 ± 0.065
15,YCMCIFATLG,-0.398 ± 0.76
16,FYSLILMMEDGSEYVKVEFR,-1.38 ± 0.75
17,TICVSSVRRTGKGSWVRDWA,0.356 ± 0.5
18,CSQVALLNKLFLPG,-1.14 ± 0.38
19,DSVIWVCIVWRRSSSTMCVM,1.01 ± 0.38
20,LDCLRFTDFILIISKFVPVL,0.026 ± 1.1
21,TQSWDEWSYGNITGSTSYRL,0.25 ± 0.23
22,KPWVTLLVCCSVYRFFMYYA,4.96 ± 0.081
23,WRAKAFSEKFIERRWDVGMN,-1.18 ± 0.62
24,TGCMSFSWPWTLLVSPIQLS,-0.651 ± 0.48
25,SRIIYMPPPVCHESLGKRPV,-0.296 ± 0.63

row,Substance,amyloid nucleation score
1,ANNRGVSLDPGVHCVGVLLK,0.551 ± 0.51
2,GSASLCNSAERVYV,0.681 ± 0.55
3,QWQGQHLT,-1.4 ± 1
4,VVYRLDFRPFNSPPCMRSAS,0.074 ± 0.32
5,ASVKSILVYGGCTKWFFPHF,4.11 ± 0.062
6,GGDDVEDMYALGPNFFEGG,0.627 ± 0.66
7,CHSNKSCRSHIEEI,-0.377 ± 0.5
8,VIGASRRVWHRLKHKA,0.994 ± 0.34
9,TVTVDIFSKEWTGGTNFCDI,-0.179 ± 0.76
10,YCKFYWNHNVYCLVALWRLW,-0.149 ± 0.79
11,PRKPRNVDSL,0.134 ± 0.18
12,WDNLNDFHN,-1.35 ± 1.1
13,YSYSIRLRCFASRYIFVRVR,0.436 ± 0.66
14,HSFVNNEKASQMSSCETGGS,-0.509 ± 0.41
15,MYRRSSWHLWWSKELFDAIY,-0.723 ± 0.79
16,LLNFMCIYYEWFQRSAEHAT,-0.605 ± 0.76
17,FDFLSSFPRLWVRVEGIPCF,-0.994 ± 0.55
18,NGTKTP,0.568 ± 0.47
19,LKSDRSLMLIEPALDLIWYF,-0.27 ± 1.1
20,IFGFGL,2.85 ± 0.2
21,TDAGNKGNTTCNRRSACLFY,0.669 ± 0.74
22,PDFRSP,-0.451 ± 0.41
23,DEIVSERDIVSSNRLCGSIM,-0.561 ± 1.1
24,RSKDYVFFCFSCTNWLC,8 ± 0.082
25,LTMLPDNVPTKALFSYLSVT,-1.24 ± 0.76

row,Substance,amyloid nucleation score
1,WGRWAVSFYGLREDSLLSLG,-0.324 ± 0.53
2,NLSWLVNWMEYVRGRLW,-0.56 ± 0.4
3,MPQWKL,-0.205 ± 0.74
4,DHLYMYWGAQ,1.02 ± 0.37
5,STCVCYGSFCEASLWASLDG,6.58 ± 0.075
6,YREACCCNSFACPGATDVGP,9.188 ± 0.046
7,TSNLFHLYGACRRYMGRCSA,0.434 ± 0.66
8,LGLLCTVEIHYLGNMYIHRP,7.043 ± 0.045
9,NVHCILMSGVMGIQYRWKVL,0.395 ± 0.51
10,VQMYCRSSAQPRVAILAMSG,1.16 ± 0.12
11,GWESGALWVANFLSVRQA,0.19 ± 0.56
12,LVSVVNMVADSSRKSSQGEL,4.875 ± 0.039
13,SPSLVTNFVENGFFGVDLLS,inactive
14,DIAKLLCYILCFNGKSRRWG,0.127 ± 0.55
15,ILAYPFRCIETNSLLKMSPL,0.402 ± 0.8
16,CFGISSS,-1.12 ± 0.36
17,RDIFILYD,inactive
18,QCLYWV,inactive
19,WYSQVPERALRQWGFFSLGG,0.397 ± 0.46
20,GVKRYDVHM,-0.244 ± 0.48
21,DSCCMSYSRQNCTY,0.218 ± 0.8
22,DVFGRGLMKEMGFVNFTLYY,inactive
23,FSLGQKLLFCFCEVCWLNVA,2.97 ± 0.1
24,HKWCKYNDLFVIHMSGFGRG,5.44 ± 0.087
25,FYPAEFYGKGLVDRTLFFIC,0.12 ± 0.18

row,Substance,amyloid nucleation score
1,FIDIKSICCRHMNDWHCLSE,-0.603 ± 0.32
2,WMCRSTAMIHSRSDCV,6.328 ± 0.052
3,FEMGFHVWDM,inactive
4,VISKVSLDVCRCIRFLHYDS,7.692 ± 0.061
5,LDFHPVCRGMSSPCQCASMR,0.907 ± 0.2
6,RYVQLIDHWSNGIVKVVGVL,0.783 ± 0.56
7,ESLGDSI,-0.352 ± 1
8,RLVSKEATCPR,-0.058 ± 0.54
9,CLQSPLYFDWGSGIQISNWL,inactive
10,AFCTKCASMRAILRGGGLVW,-0.109 ± 0.76
11,FLVIVQPSHFGCSKSNKGVW,0.453 ± 0.66
12,YLVPFWVVDCFDGLD,0.072 ± 1.1
13,RTLYSGWVGHVSKEARNLFK,6.12 ± 0.054
14,VKAVMWIDLVNRVIMNGHIS,-0.461 ± 0.49
15,RIIKYIMNGRRFVVLWRVFS,5.342 ± 0.052
16,IYDCDTTMVSNNMRYILVLH,-0.858 ± 0.33
17,IGLNTYTMF,0.282 ± 0.49
18,QWVDQVYIAETIVPLSNKVV,-0.398 ± 1
19,MFSSMSVLCKYILASWASHK,-0.58 ± 0.63
20,PEMWHYMRFSSIKIRLTSKF,-0.016 ± 0.65
21,YLTFLNASTSRYKLSLVPRR,4.11 ± 0.082
22,DTLFNCFSCIVKLMSYIKSL,inactive
23,GDFVGMLYNRCGHHMVIILT,-0.731 ± 0.35
24,LYIIMMICIQSLFRYRGIKG,-0.975 ± 0.78
25,QVGRSSQCEDTVVFIRVRLW,3.77 ± 0.066

row,Substance,amyloid nucleation score
1,DQTWNWNVGIGFYRSYFLMY,inactive
2,FKFKLGNGIMDGSRMGHWAL,1.17 ± 0.47
3,VHLGRV,-0.678 ± 0.48
4,RFILLFTCGKGFFMHTCSRG,3.86 ± 0.11
5,GIKYRSQCGCASDVCIKCRS,-0.054 ± 1.1
6,RLDNIIVAERCTSLRESRFG,-0.047 ± 1.1
7,ERYVCKGC,inactive
8,LLLGTSVDVFL,0.07 ± 0.74
9,AVIMRFVYYDAYWGLWMVKE,0.228 ± 1
10,TDASYNRMVTYFKWIISGYR,-1.39 ± 0.54
11,CLSRLNVLWYSPFKHFILEC,-0.267 ± 0.45
12,LYLYPAMFVSWLSGLPTRFC,-0.406 ± 1.1
13,SPTER,0.053 ± 0.65
14,TCSFMMCLPTRLARIIDPWM,-0.322 ± 0.49
15,CHSRLLEYGENCNRIEYCLC,-0.459 ± 0.27
16,LVVVRMGGIGLESFVAHGEV,0.524 ± 0.35
17,RMVVVVSKRY,1.73 ± 0.17
18,FTVVIINISYTLSVLRERQM,1.5 ± 0.14
19,VYYLDSV,0.978 ± 0.74
20,CAIAWRMPLDRPPLKE,-0.627 ± 0.76
21,MMVGFLCK,3.91 ± 0.07
22,LRTSSSYSFLEYIRS,-1.08 ± 1
